The subject of experiment [1] is collagen. The experiment is described as follows: RT-PCR analysis of collagen transcript in foreskin fibroblast cells. The experiment is classed as cell-based. The note with it: for collagen synthesis (RT-PCR), deletion fragments, compared with C-terminal fragment SEQ ID NO: 15: 100 nM for 2 hours and 6 hours, FIG. 6; for synthesis of collagen (RT-PCR), AIMP1 fragments: 100 nM, 0, 1, 2, 4 and 6 hours, FIG. 5. The protocol: (§1) In order to measure the collagen transcript RNA induced by the AIMP1, foreskin fibroblast cells (5×10^4 cells/well; obtained from MTT; accession number: MC1232) were cultured in 10% serum-containing DMEM medium on a 6-well plate for 12 hours and then cultured in serum-free medium for about 3 hours. Next, the cultured cells were treated with the AIMP1 (SEQ ID NO: 1) at varying AIMP1 concentrations of 0, 20, 50, 100 and 200 nM for 6 hours (RT-PCR) or 12 hours (Western blot).
The cells treated with the AIMP1 at varying concentrations in Example <1-1> were collected and dissolved in TRIzol (invitrogen). 10% by weight of chloroform was added to the cell lysate, and mixed well. The mixture was centrifuged at 12,000 g for 15 minutes and the supernatant was collected. Ethanol was added to the collected supernatant to a final concentration of 70%. Then, the supernant was centrifuged at 26,000 g for 5 minutes and the precipitant was collected. The precipitant was dried and dissolved in sterilized distilled water, and the total RNA was extracted. 3 μg of the total RNA was used to prepare cDNA. Then, the cDNA was amplified by PCR using collagen-specific primers (SEQ ID NO: 4 and SEQ ID NO: 5). At this time, for use as a control group, the cDNA was subjected to PCR using GADPH-specific primers (SEQ ID NO: 6 and SEQ ID NO: 7). The PCR reaction consisted of: pre-denaturation of the template DNA at 95° C. for 5 min, followed by 25 cycles of 1 min at 95° C., 1 min at 52° C. and 1 min at 72° C., and then a final extension for 5 min at 72° C.
(§2) Foreskin fibroblast cells (5×10^4 cells/well) were cultured in 10% serum-containing DMEM medium on a 6-well plate for 12 hours, and then, cultured in serum-free medium for about 3 hours. Next, the cultured cells were treated with 100 nM of the AIMP1 at various time intervals (0, 2, 4, 6, 12 and 24 hours).
(§3) Foreskin fibroblast cells (5×10^4 cells/well) were cultured in 10% serum-containing DMEM medium on a 6-well plate about 12 hours, and then, cultured in serum-free medium for about 3 hours. Then, the cultured cells were treated with 100 nM of the N-terminal and C-terminal fragments of the AIMP1 prepared in Reference Example 1, at various time intervals of 0, 1, 2, 4, and 6 hours. Then, RT-PCR was performed in the same manner as in Example <1-2> using each of collagen-specific primers (SEQ ID NO: 4 and SEQ ID NO: 5), KGF-specific primers (SEQ ID NO: 8 and SEQ ID NO: 9) and GADPH-specific primers (SEQ ID NO: 6 and SEQ ID NO: 7).
(§4) Foreskin fibroblast cells (5×10^4 cells/well) were cultured in 10% serum-containing DMEM medium on a 6-well plate for 12 hours and then cultured in serum-free medium for about 3 hours. Next, the cultured cells were treated with each of the N-terminal fragments (SEQ ID NOS: 12, 13 and 14) and C-terminal fragment (SEQ ID NO: 15) of AIMP1 prepared in Reference Example 2 at an concentration of 100 nM for 2 hours and 6 hours, respectively. The treated cells were subjected to RT-PCR using collagen-specific primers (SEQ ID NOS: 4 and 5), KGF-specific primers (SEQ ID NOS: 8 and 9) and GADPH-specific primers (SEQ ID NOS: 6 and 7) in the same manner as in Example <1-2>.

Experiment [2] relates to KGF. The experiment in a line: RT-PCR analysis of KGF expression in foreskin fibroblast cells. The experiment is classed as cell-based. Conditions: for KGF synthesis (RT-PCR), deletion fragments, compared with C-terminal fragment SEQ ID NO: 15: 100 nM for 2 hours and 6 hours, FIG. 6; for synthesis of KGF (RT-PCR), AIMP1 fragments: 100 nM, 0, 1, 2, 4 and 6 hours, FIG. 5. The protocol:
From foreskin fibroblast cells treated with 100 nM of the AIMP1 for 2 hours, the total RNA was extracted in the same manner as described in Example <1-2>. Then, the extract was amplified by RT-PCR using KGF-specific primers (SEQ ID NO: 8 and SEQ ID NO: 9). The control groups were amplified using cyclin D-specific primers (SEQ ID NO: 10 and SEQ ID NO: 11) and GADPH-specific primers (SEQ ID NO: 6 and SEQ ID NO: 7), respectively. The PCR reaction consisted of: predenaturation of the template DNA at 95° C. for 5 min, followed by 25 cycles of 1 min at 95° C., 1 min at 52° C. and 1 min at 72° C., and then, a final extension for 5 min at 72° C.
as §3, §4

In experiment [3] the test system is collagen. The experiment is described as follows: Western blot analysis of collagen (anti-collagen I antibody) in foreskin fibroblast cells. The format is cell-based. The note with it: 200 nM for 12 hours, FIG. 7. The protocol: as §1
The cells treated with the AIMP1 at varying AIMP1 concentrations in Example <1-1> were collected and lysed in a cell lysis buffer (50 mM HEPES, pH 7.5, 150 mM NaCl, 10% glycerol, 5 mM EGTA, 1 mM sodium orthovanadate, 10 mM NaF, 12 mM b-glycerophosphate, 1 mM DTT, 1 mM PMSF, […] aprotinin, and 1% NP40). Lysed cells were centrifuged at 26,000 g for 15 minutes and the cell extract was isolated. 30 μg of the cell extract was separated by 8% SDS-PAGE and immunoblotted with an anti-collagen I antibody (Abcam) according to any conventional method known in the art. As a control group, an anti-tubulin antibody (Sigma) was used.
as §2
Foreskin fibroblast cells (5×10^5 cells/well) were cultured in 10% serum-containing DMEM medium on a 6-well plate for 48 hours and then cultured in serum-free medium for about 3 hours. Next, the cultured cells were treated with each of the AIMP1 (SEQ ID NO: 1) and the AIMP1 N-terminal fragments (SEQ ID NOS: 2 and 12) at a concentration of 200 nM for 12 hours. As a control group, cells without treatment were used.
The cells treated with each of the AIMP1 and its N-terminal fragments and the control cells were collected at the indicated time and subjected to Western blot analysis in the same manner as in Example <1-3>.

The subject of experiment [4] is collagen. The experiment is described as follows: Activity to stimulate collagen synthesis (data not shown).
Experiment [5] concerns KGF. The experiment is described as follows: Activity to stimulate KGF expression (data not shown).

As for “SEQ ID NO: 14: N-terminal deletion fragment of AIMP1, amino acids 1-53 (MANNDAVLKRLEQKGAEADQIIEYLKQQVSLLKEKAILQATLREEKKLRVENA; PEPTIDE (1)..(53) AIMP1-(1-53); listed as Homo sapiens)”, the “collagen synthesis (RT-PCR), deletion fragments, compared with C-terminal fragment SEQ ID NO: 15” value with collagen [1] is “more stimulated”. Besides, the “KGF synthesis (RT-PCR), deletion fragments, compared with C-terminal fragment SEQ ID NO: 15” value in the experiment with KGF [2] is “more stimulated”.

For “SEQ ID NO: 12: N-terminal deletion fragment of AIMP1, amino acids 6-46 (AVLKRLEQKGAEADQIIEYLKQQVSLLKEKAILQATLREEK; PEPTIDE (1)..(41) AIMP1-(6-46); listed as Homo sapiens)”, the “collagen synthesis (RT-PCR), deletion fragments, compared with C-terminal fragment SEQ ID NO: 15” value in the experiment on collagen [1] is given as “more stimulated”. Also, in the experiment on collagen [3], the “synthesis of collagen, protein levels (Western blot), compared with cells without treatment” value was “more stimulated”. In the experiment with KGF [2], the “KGF synthesis (RT-PCR), deletion fragments, compared with C-terminal fragment SEQ ID NO: 15” value is on record as “more stimulated”.

For the molecule “SEQ ID NO: 13: N-terminal deletion fragment of AIMP1, amino acids 1-46 (MANNDAVLKRLEQKGAEADQIIEYLKQQVSLLKEKAILQATLREEK; PEPTIDE (1)..(46) AIMP1-(1-46); listed as Homo sapiens)”, in the experiment with collagen [1], the “collagen synthesis (RT-PCR), deletion fragments, compared with C-terminal fragment SEQ ID NO: 15” value is reported as “more stimulated”. Further, the “KGF synthesis (RT-PCR), deletion fragments, compared with C-terminal fragment SEQ ID NO: 15” value in the experiment on KGF [2] is “more stimulated”.

B1: SEQ ID NO: 27: fragment consisting of amino acids 1-192 of the AIMP1 (protein, listed as Homo sapiens)
chain: MANNDAVLKRLEQKGAEADQIIEYLKQQVSLLKEKAILQATLREEKKLRVENAKLKKEIEELKQELIQAEIQNGVKQIAFPSGTPLHANSMVSENVIQSTAVTTVSSGTKEQIKGGTGDEKKAKEKIEKKGEKKEKKQQSIAGSADSKPIDVSRLDLRIGCIITARKHPDADSLYVEEVDVGEIAPRTVVSG
modifications: PEPTIDE (1)..(192) AIMP1-(1-192)
notes: fragment consisting of amino acids 1-192 of the AIMP1
On to B1, for which, in the experiment with collagen [4], the “activity to stimulate collagen synthesis” value is given as “have the activity to stimulate collagen synthesis”. In addition, the “activity to stimulate KGF expression” value in the experiment with KGF [5] is “have the activity to stimulate collagen synthesis and KGF expression”.

B2: SEQ ID NO: 2: N-terminal fragment of AIMP1, amino acids 1-147 (protein, listed as Homo sapiens)
chain: MANNDAVLKRLEQKGAEADQIIEYLKQQVSLLKEKAILQATLREEKKLRVENAKLKKEIEELKQELIQAEIQNGVKQIAFPSGTPLHANSMVSENVIQSTAVTTVSSGTKEQIKGGTGDEKKAKEKIEKKGEKKEKKQQSIAGSADS
modifications: PEPTIDE (1)..(147) AIMP1-(1-147)
On to B2, for which the “synthesis of collagen (RT-PCR), AIMP1 fragments” value with collagen [1] is given as “stimulated”. Besides, the “synthesis of collagen, protein levels (Western blot), compared with cells without treatment” value with collagen [3] is “more stimulated”. The “synthesis of KGF (RT-PCR), AIMP1 fragments” value in the experiment on KGF [2] is on record as “stimulated”.

B3: C-terminal fragment: C-terminal fragment of AIMP1, amino acids 148-312 (protein, listed as Homo sapiens)
chain: KPIDVSRLDLRIGCIITARKHPDADSLYVEEVDVGEIAPRTVVSGLVNHVPLEQMQNRMVILLCNLKPAKMRGVLSQAMVMCASSPEKIEILAPPNGSVPGDRITFDAFPGEPDKELNPKKKIWEQIQPDLHTNDECVATYKGVPFEVKGKGVCRAQTMSNSGIK
modifications: PEPTIDE (1)..(165) AIMP1-(148-312)
As to B3, the “synthesis of collagen (RT-PCR), AIMP1 fragments” value with collagen [1] is “no significant effect”. Moreover, in the experiment with KGF [2], the “synthesis of KGF (RT-PCR), AIMP1 fragments” value is “no significant effect”.

B4: SEQ ID NO: 28: fragment consisting of amino acids 6-192 of the AIMP1 (protein, listed as Homo sapiens)
chain: AVLKRLEQKGAEADQIIEYLKQQVSLLKEKAILQATLREEKKLRVENAKLKKEIEELKQELIQAEIQNGVKQIAFPSGTPLHANSMVSENVIQSTAVTTVSSGTKEQIKGGTGDEKKAKEKIEKKGEKKEKKQQSIAGSADSKPIDVSRLDLRIGCIITARKHPDADSLYVEEVDVGEIAPRTVVSG
modifications: PEPTIDE (1)..(187) AIMP1-(6-192)
notes: fragment consisting of amino acids 6-192 of the AIMP1
For the molecule B4, the “activity to stimulate collagen synthesis” value in the experiment with collagen [4] is on record as “have the activity to stimulate collagen synthesis”. For the same molecule, in the experiment on KGF [5], the “activity to stimulate KGF expression” value is “have the activity to stimulate collagen synthesis and KGF expression”.

The record behind these values is US20100167997A1, “METHOD FOR STIMULATION COLLAGEN SYNTHESIS AND/OR KGF EXPRESSION” (ATYR PHARMA, INC., priority 2005, published 2010).
